How the values were obtained:
hemoglobin (Hb) = experiment: electrochemical displacement from graphene oxide (SWV); settings: Binding buffer, pH and temperature not given in the material; aptamer stock 2.0 uM in sterile deionized water; ferricyanide redox probe; fluorescence ex 480 / …
immunoglobulin G (IgG) = experiment: as above; settings: Binding buffer, pH and temperature not given in the material; aptamer stock 2.0 uM in sterile deionized water; ferricyanide redox probe; fluorescence ex 480 / …

Work on “TGCGGTTCGTGCGGTTGTAGTAC [Modified G8-FAM]” yielded a binding signal (% current response) (hemoglobin (Hb)) of 11.7 and a binding signal (% current response) (immunoglobulin G (IgG)) of 29.5.

From article PMC8002523
